Reference: patent US20030109439A1

Molecular target: KGF receptor (mouse) (UniProt P21803)
Experiment: cell-based or functional assay

Sequence of UniProt P21803 (P21803 22-821): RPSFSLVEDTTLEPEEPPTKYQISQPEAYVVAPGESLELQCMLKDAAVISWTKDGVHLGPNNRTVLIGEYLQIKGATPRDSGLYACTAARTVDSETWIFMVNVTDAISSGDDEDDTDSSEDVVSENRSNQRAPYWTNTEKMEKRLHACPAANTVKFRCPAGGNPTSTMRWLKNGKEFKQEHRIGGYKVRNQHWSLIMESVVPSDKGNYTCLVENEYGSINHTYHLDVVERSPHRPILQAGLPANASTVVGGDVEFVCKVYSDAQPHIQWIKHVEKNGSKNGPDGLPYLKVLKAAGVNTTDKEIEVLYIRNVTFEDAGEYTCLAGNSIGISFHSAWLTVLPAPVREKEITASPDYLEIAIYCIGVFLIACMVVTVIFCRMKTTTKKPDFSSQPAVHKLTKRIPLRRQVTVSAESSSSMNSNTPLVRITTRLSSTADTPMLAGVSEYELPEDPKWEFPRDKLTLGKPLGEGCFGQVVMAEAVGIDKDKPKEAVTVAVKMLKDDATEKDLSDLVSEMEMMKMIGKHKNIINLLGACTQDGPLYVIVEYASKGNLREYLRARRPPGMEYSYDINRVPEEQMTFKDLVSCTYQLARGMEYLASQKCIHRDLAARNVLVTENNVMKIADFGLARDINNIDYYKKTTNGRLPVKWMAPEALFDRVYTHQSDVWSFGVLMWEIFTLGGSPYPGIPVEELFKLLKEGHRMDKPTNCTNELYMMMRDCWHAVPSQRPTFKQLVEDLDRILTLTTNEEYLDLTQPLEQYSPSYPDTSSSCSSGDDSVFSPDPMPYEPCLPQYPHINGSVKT

- potency as mitogen for Balb/Mk cells (cell proliferation), relative to KGF (fold less than KGF): 10
Substance: acidic FGF (ligand)
